According to patent publication US8466107B2, “Fibrin-binding peptides and conjugates thereof” (Bracco Imaging SpA, priority 2006, dated 2013):
One block for each molecule: values may come before it. Numbered stars: 1 amine (or outer) side, 2 acyl side, 3 side chain; on linkers, the order of the positions; unused ones are H or OH. Bridge positions count the residues as written; N and C are the ends. Square brackets hold non-standard residues; d marks the D form. Side chains are listed from the residue outwards. Ends that are not written are not given here. Peptide text beside a SMILES is read from it. * marks the point of attachment. DSPE = distearoyl phosphatidylethanolamine, CCCCCCCCCCCCCCCCCC(=O)OC[C@H](COP(=O)(O)OCCN*)OC(=O)CCCCCCCCCCCCCCCCC; DPPE = CCCCCCCCCCCCCCCC(=O)OC[C@H](COP(=O)(O)OCCN*)OC(=O)CCCCCCCCCCCCCCC; Tuda = 3,6,9-trioxaundecane-1,11-dioyl, O=C(COCCOCCOCC(=O)[*:3])[*:2]; 5FAM = O=C1OC2(c3ccc(O)cc3Oc3cc(O)ccc32)c2ccc(C(=O)*)cc21; Glutaryl = O=C(CCCC(=O)[*:2])[*:1]; Cha = N[C@@H](CC1CCCCC1)C(=O)O; PG4 = not defined here; AEEA = NCCOCCOCC(=O)O

Tests used:
[1] = molecular target: T1, fibrin (Homo sapiens, UniProt P02671+P02675+P02679); test: Dynamic binding test of targeted microvesicles on fibrin-coated coverslips in a parallel-plate flow chamber; settings: shear rate about 114 s^-1, 10 min, 50% human plasma
T1 sequence (P02671 36-629 limits assumed): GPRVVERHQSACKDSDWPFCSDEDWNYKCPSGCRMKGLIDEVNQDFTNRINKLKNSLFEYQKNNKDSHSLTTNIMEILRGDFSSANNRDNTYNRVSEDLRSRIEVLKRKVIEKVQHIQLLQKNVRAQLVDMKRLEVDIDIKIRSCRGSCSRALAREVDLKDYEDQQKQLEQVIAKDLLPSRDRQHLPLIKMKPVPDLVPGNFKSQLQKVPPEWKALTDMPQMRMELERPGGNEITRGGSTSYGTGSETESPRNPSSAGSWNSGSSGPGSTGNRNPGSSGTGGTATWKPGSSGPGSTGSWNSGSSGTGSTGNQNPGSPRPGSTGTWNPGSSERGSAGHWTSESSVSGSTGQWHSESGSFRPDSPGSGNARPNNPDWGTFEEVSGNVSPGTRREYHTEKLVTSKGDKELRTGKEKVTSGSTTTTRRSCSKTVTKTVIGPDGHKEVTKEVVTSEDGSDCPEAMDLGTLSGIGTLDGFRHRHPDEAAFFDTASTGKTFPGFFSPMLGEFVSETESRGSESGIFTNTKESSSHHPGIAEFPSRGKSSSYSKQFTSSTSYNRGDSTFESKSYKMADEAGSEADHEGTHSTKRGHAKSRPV
T1 sequence (P02675 45-491 limits assumed): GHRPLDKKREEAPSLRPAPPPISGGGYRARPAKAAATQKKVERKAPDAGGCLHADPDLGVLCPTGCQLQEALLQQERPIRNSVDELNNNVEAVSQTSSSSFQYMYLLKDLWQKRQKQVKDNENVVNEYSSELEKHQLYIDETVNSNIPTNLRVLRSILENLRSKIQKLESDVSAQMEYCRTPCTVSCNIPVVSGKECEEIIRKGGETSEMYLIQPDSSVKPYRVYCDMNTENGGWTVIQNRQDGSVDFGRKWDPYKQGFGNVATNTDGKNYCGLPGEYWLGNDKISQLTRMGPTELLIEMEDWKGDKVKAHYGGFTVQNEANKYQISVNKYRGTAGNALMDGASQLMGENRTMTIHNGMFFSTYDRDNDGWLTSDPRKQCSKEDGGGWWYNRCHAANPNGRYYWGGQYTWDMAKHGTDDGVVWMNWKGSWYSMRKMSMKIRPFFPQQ
T1 sequence (P02679 27-437 isoform P02679-2 limits assumed): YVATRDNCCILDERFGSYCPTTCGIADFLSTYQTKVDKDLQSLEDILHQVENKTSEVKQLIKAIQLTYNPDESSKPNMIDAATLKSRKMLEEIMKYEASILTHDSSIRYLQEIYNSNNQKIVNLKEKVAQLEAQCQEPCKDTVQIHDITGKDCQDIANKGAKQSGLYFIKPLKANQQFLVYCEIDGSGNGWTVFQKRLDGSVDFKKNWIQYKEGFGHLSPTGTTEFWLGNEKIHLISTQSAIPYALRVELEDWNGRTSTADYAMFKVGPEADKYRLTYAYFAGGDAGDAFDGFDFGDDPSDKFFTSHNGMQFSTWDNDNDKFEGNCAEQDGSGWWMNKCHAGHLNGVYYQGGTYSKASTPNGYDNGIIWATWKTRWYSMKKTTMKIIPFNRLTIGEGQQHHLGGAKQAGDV
Protocol: Glass coverslips (40 mm in diameter, Bioptechs Inc., Butler, Pa., USA) were coated with fibrin according the following methodology.
Five mL of a solution of BSA 1% w/v in PBS pH 7.4 were added into a 60 mm Petri Dish containing one coverslip, and incubated at 37° C. for 15 min. Then the coverslip was washed three times with 5 ml of Tween 80/PBS (0.1%, v:v). Twenty five μL of human thrombin solution at 5 U/mL were added per mL of human fibrinogen solution (0.5 mg/mL in 50 mM sodium phosphate, NaCl 280 mM, pH 7.4) and delicately mixed. Five mL of this solution were immediately distributed in each Petri dish. The coverslips were incubated for one hour at 37° C. and then dried overnight at 45° C.
Binding studies of targeted microvesicles were carried out using a parallel-plate flow chamber (FCS2, Bioptech Inc., Butler, Pa., USA) with a chamber gasket of 0.25 mm in thickness, with a customized adapter for upside-down chamber inversion. The coated coverslip was inserted as a plate of the flow chamber. Gas-filled Microvesicles (5×10^6 bubbles/mL in 50% human plasma in PBS) were drawn through the flow chamber using an adjustable infusion pump (Auto Syringe® AS50 Infusion Pump, Baxter, Deerfield, Ill., USA) with a 60 mL syringe (Terumo). The pump flow rate was adjusted to 1 mL/min to obtain the desired shear rate of about 114 s^−1. After 10 minutes, the flow was stopped and pictures were taken randomly on different positions on the coverslip (on surfaces of about 0.025 mm^2) using a 40× objective and a CCD monochrome camera (F-View II, Soft Imaging Systems, Germany) connected to an inverted Olympus IX 50 microscope. The number of microvesicles on each picture was determined, averaged with respect to the total number of pictures and the obtained value was then divided by ten (to obtain the “slope”, i.e. the average amount of bound microvesicles per minute).
For each preparation of Examples 17-20, the binding assay was repeated four times thus obtaining an average value of the slope. The slope represents the microvesicle binding rate on the target substrate. […] A higher slope indicates a better capacity of microvesicles to bind to the target under flow conditions.

[2] = molecular target: DDE (fibrin-derived polypeptide) (Homo sapiens, UniProt P02671+P02675+P02679); test: Direct binding fluorescence polarization (FP) assay using 5-carboxyfluorescein labeled peptides; settings: 20 nM CF5-labeled peptide, serial dilutions of DDE, anisotropy read at 485 nm; read-out: KD (μM) Direct Binding (n = 2)
[3] = microvesicles with DSPC/DSPG envelope, Examples 19C-19E (0.45 μmoles lipopeptide, 0.45 μmoles DSPE-PEG1000)
[4] = microvesicles with DPPE/DPPG envelope containing the lipopeptide (Examples 18A-18C), slope = average bound microvesicles per minute
[5] = microvesicles with DSPC/stearate envelope containing the lipopeptide (Examples 20A-20D)
[6] = microvesicles with DSPC/DSPA envelope, 0.26 μmoles lipopeptide (Examples 20E, 20G, 20H)
[7] = microvesicles with DSPC/DPPG envelope containing the lipopeptide (Examples 17A-17B, molar ratio 47.5/47.5/5), slope = average bound microvesicles per minute

Molecule: RWQPC*PWESWTFC*WDPGGGK(DSPE-PG4-Glut)-NH2 (RWQPCPWESWTFCWDPGGGK([Glutaryl-PG4-DSPE])-NH2; disulfide 5-13; reading uncertain; also: printed as RWQPC*PWESWTFC*WDPGGGK(DSPE-PG4-Glut)-NH2) [Seq023-PL1]
Slope [1, 3]: 8.5

Molecule: Ac-SGSGJWQPC*PWESWTFC*WDPGGGK(DSPE-PG4-Glut)-NH2 (Ac-SGSG[AEEA]WQPCPWESWTFCWDPGGGK-NH2; disulfide 9-17; not fully specified (residue 24); printed as Ac-SGSGJWQPC*PWESWTFC*WDPGGGK(DSPE-PG4-Glut)-NH2) [Seq017-PL1]
Slope [1, 4]: 8.9
Slope [1, 5]: 3.1

Molecule: Ac-SGSGSGSGWQPC*PWESWTFC*WDPGGGK(DSPE-PG4-Glut)-NH2 (Ac-SGSGSGSGWQPCPWESWTFCWDPGGGK([Glutaryl-PG4-DSPE])-NH2; disulfide 12-20; reading uncertain; also: printed as Ac-SGSGSGSGWQPC*PWESWTFC*WDPGGGK(DSPE-PG4-Glut)-NH2) [Seq024-PL1]
Slope [1, 3]: 6.2

Molecule: Ac-GWQPC*PWESWTFC*WDPGGGK(DSPE-PG4-Glut)-NH2 (Ac-GWQPCPWESWTFCWDPGGGK([Glutaryl-PG4-DSPE])-NH2; disulfide 5-13; reading uncertain; also: printed as Ac-GWQPC*PWESWTFC*WDPGGGK(DSPE-PG4-Glut)-NH2) [Seq016-PL1]
Slope [1, 3]: 11.5
Slope [1, 5]: 8.4

Molecule: Ac-WQPC*PWESWTFC*WDPGGGK(DPPE-PG4-Glut)-NH2 (Ac-WQPCPWESWTFCWDPGGGK([Glutaryl-PG4-DPPE])-NH2; disulfide 4-12; reading uncertain) [Seq000-PL1, reference compound]
Slope [1, 4]: 4.8
Slope [1, 7]: 6.44
Slope ([1]; microvesicles with DSPC/DSPG envelope, Example 19A (0.63 μmole lipopeptide, 0.28 μmole DSPE-PEG1000)): 4.4
Slope ([1]; microvesicles with DSPC/DSPG envelope, Example 19B (0.36 μmole lipopeptide, 1.44 μmoles DSPE-PEG1000)): 4.9
Slope [1, 5]: 1.6

Molecule: Ac-WQPC*PAESWTFC*WDPGGGK(DSPE-PG4-Glut)-NH2 (Ac-WQPCPAESWTFCWDPGGGK([Glutaryl-PG4-DSPE])-NH2; disulfide 4-12; reading uncertain; also: printed as Ac-WQPC*PAESWTFC*WDPGGGK(DSPE-PG4-Glut)-NH2) [Seq005-PL1]
Slope [1, 4]: 7.2
Slope [1, 7]: 8.54
Slope [1, 5]: 6.1

Molecule: Seq000-PL2: comparative lipopeptide prepared from Seq000(Adoa-Adoa) and DPPE (Ac-WQPCPWESWTFCWDPGGGK([AEEA-AEEA-Tuda-DPPE])-NH2; disulfide 4-12) [reference compound]
Slope [1, 6]: 4.6

The remaining lines, values ahead:

Slope [1, 6]: 6.0
Molecule: Ac-WQPCPAESWTFCWDPGAGSGK(DPPE-Pro9-Glut-Ttda-Dga)-NH2 (Ac-WQPCPAESWTFCWDPGAGSGK-NH2; disulfide 4-12 (inferred); not fully specified (residue 21)) [Seq005-PL5]

Slope [1, 6]: 6.4
Slope ([1]; microvesicles with DSPC/DSPA envelope, 0.795 μmoles lipopeptide (Example 20F)): 8.0
Molecule: Ac-WQPCPAESWTFCWDPGSAGSK(DPPE-Pro9-Glut-Ttda-Dga)-NH2 (Ac-WQPCPAESWTFCWDPGSAGSK-NH2; disulfide 4-12 (inferred); not fully specified (residue 21)) [Seq005-PL4]

Kd [2]: 0.06 µM
Molecule: C[C@@H]1NC(=O)[C@@H]2CCCN2C(=O)[C@@H](NC(=O)[C@@H]2CCCN2C(=O)[C@H](CCC(N)=O)NC(=O)[C@H](Cc2c[nH]c3ccccc23)NC(=O)CN)CSSC[C@@H](C(=O)N[C@@H](Cc2c[nH]c3ccccc23)C(=O)N[C@@H](CC(=O)O)C(=O)N2CCC[C@H]2C(=O)NCC(=O)NCC(=O)NCC(=O)N[C@@H](CCCCNC(=O)c2ccc3c(c2)C(=O)OC32c3ccc(O)cc3Oc3cc(O)ccc32)C(N)=O)NC(=O)[C@H](CC2CCCCC2)NC(=O)[C@H]([C@@H](C)O)NC(=O)[C@H](Cc2c[nH]c3ccccc23)NC(=O)[C@H](CO)NC(=O)[C@H](CCC(=O)O)NC1=O [Seq051-CF5, GWQPC*PAESWT-Cha-C*WDPGGGK(CF5)-NH2] (H-GWQPCPAESWT[Cha]CWDPGGGK(5FAM)-NH2; disulfide 5-13; N-terminus assumed)

Kd [2]: 0.76 µM
Molecule: CC(=O)N[C@@H](CCCCN)C(=O)NCC(=O)N[C@@H](CCCCN)C(=O)NCC(=O)N[C@@H](CCCCN)C(=O)NCC(=O)N[C@@H](Cc1c[nH]c2ccccc12)C(=O)N[C@@H](CCC(N)=O)C(=O)N1CCC[C@H]1C(=O)N[C@H]1CSSC[C@@H](C(=O)N[C@@H](Cc2c[nH]c3ccccc23)C(=O)N[C@@H](CC(=O)O)C(=O)N2CCC[C@H]2C(=O)NCC(=O)NCC(=O)NCC(=O)N[C@@H](CCCCNC(=O)c2ccc3c(c2)C(=O)OC32c3ccc(O)cc3Oc3cc(O)ccc32)C(N)=O)NC(=O)[C@H](Cc2ccccc2)NC(=O)[C@H]([C@@H](C)O)NC(=O)[C@H](Cc2c[nH]c3ccccc23)NC(=O)[C@H](CO)NC(=O)[C@H](CCC(=O)O)NC(=O)[C@H](Cc2c[nH]c3ccccc23)NC(=O)[C@@H]2CCCN2C1=O [Seq026-CF5] (Ac-KGKGKGWQPCPWESWTFCWDPGGGK(5FAM)-NH2; disulfide 10-18)
